Experimental data reported in US20130324465A1 (Sanofi, published 2013).
Where “and” joins values, the source holds several entries; their conditions need not be identical. Equal entries are not always repeated.

T1: VEGF165 (UniProt P15692 27-191)
T1 chain: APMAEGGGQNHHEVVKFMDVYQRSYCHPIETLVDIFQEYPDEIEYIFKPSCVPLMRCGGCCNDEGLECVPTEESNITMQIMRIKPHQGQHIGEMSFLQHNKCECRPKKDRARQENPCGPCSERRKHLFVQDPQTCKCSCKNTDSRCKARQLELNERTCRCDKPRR


What was measured:
[1] = target: VEGF165 (UniProt P15692); assay: competitive VEGF ELISA; panel B
[2] = target: VEGF165 (UniProt P15692); assay: competitive VEGF ELISA; panel A
[3] = target: VEGF165 (UniProt P15692); assay: VEGF binding assay; after 56 days incubation at 45 C
[4] = target: VEGF165 (UniProt P15692); assay: VEGF binding assay
[5] = target: T1, VEGF165; assay: Biacore; 500RU VEGF
[6] = target: T1, VEGF165; assay: competitive VEGF ELISA; panel B
[7] = target: T1, VEGF165; assay: Biacore; 100RU VEGF
[8] = target: T1, VEGF165; assay: competitive VEGF ELISA; panel A
[9] = target: T1, VEGF165; assay: VEGF binding assay
[10] = target: T1, VEGF165; assay: Biacore; 4000RU VEGF
[11] = target: T1, VEGF165; assay: competitive VEGF ELISA
[12] = target: T2, VEGF165 (UniProt P15692-4 27-191); assay: competitive VEGF ELISA
T2 construct: also called recombinant VEGF (R&D Systems); immobilized VEGF
Experimental: Dimer was prepared using 100 uM CuCl₂ and the products assayed for VEGF binding activity by competitive VEGF ELISA. […] This value was similar to that obtained for dimers obtained without copper oxidation (FIG. 5). This molecule lacks the hinge region and Fc domain of sFLT01 and represents a minimal high affinity VEGF binding entity. Its low MW may provide advantages in localized delivery, including higher diffusion through tissue, more rapid systemic clearance thus reducing potential side effects of VEGF antagonism, and greater stability upon formulation into slow-release depots.
Dimers wherein two D2 domains of sFLT are coupled via PEG linkers were prepared by reaction of the partially-reduced monomer with homobifunctional PEGs. Products were isolated by SEC (FIG. 5) and analyzed for VEGF binding affinity using competitive ELISA (FIG. 9). VEGF165 binding of three SEC purified D2 domain constructs including dimers prepared with 0.6, 2 and 5 kDa linkers and as well as the 10 and 20 kDa 4-arm PEG conjugates as described in Example 1 was determined. The assay was performed by binding to 10 pM recombinant VEGF (R&D Systems) in phosphate-buffered saline. The sample concentrations ranged from 0.0763 to 156 pM. Following binding, the free VEGF concentration was determined by a VEGF-specific ELISA (R&D Systems). […]

[13] = target: T2, VEGF165; assay: competitive VEGF ELISA (VEGF binding assay)
Experimental: (§1) Dimers wherein two D2 domains of sFLT are coupled via PEG linkers were prepared by reaction of the partially-reduced monomer with homobifunctional PEGs. Products were isolated by SEC (FIG. 5) and analyzed for VEGF binding affinity using competitive ELISA (FIG. 9). VEGF165 binding of three SEC purified D2 domain constructs including dimers prepared with 0.6, 2 and 5 kDa linkers and as well as the 10 and 20 kDa 4-arm PEG conjugates as described in Example 1 was determined. The assay was performed by binding to 10 pM recombinant VEGF (R&D Systems) in phosphate-buffered saline. The sample concentrations ranged from 0.0763 to 156 pM. Following binding, the free VEGF concentration was determined by a VEGF-specific ELISA (R&D Systems). […] D2 monomer purified directly from medium (“D2 HPC4 eluate Pk C”) had no detectable binding to VEGF165.

[14] = target: T2, VEGF165; assay: Biacore
[15] = target: T2, VEGF165; assay: competitive VEGF ELISA: binding to 10 pM recombinant VEGF, free VEGF measured by ELISA
Experimental: as §1

Row | Molecule | Kd [5] [nM] | EC50 [6] [nM] | Kd [7] [nM] | EC50 [8] [nM] | Kd [10] [nM] | EC50 [11] [nM] | also measured
1 | D2-Cys protein (D2 domain of FLT-1 with HPC4 tag and C-terminal cysteine), monomer (from UniProt P17948 133-226) | – | – | – | – | – | – | EC50 [1]: 0.172 nM and 0.254 nM
2 | disulfide-linked D2 dimer (D2 domain with HPC4 tag and C-terminal cysteine) (from UniProt P17948 133-226) | – | – | – | – | – | – | EC50 [2]: 0.00708 nM; EC50 [3]: 0.0109 nM; EC50 [4]: 0.0048 nM; EC50 [1]: 0.0119 nM
3 | Four-arm D2 tetramer linked with 4-arm PEG of 20 kDa (receptor, free cysteine coupled to a 4-arm 20 kDa maleimide PEG) RPFVEMYSEIPEIIHMTEGRELVIPCRVTSPNITVTLKKFPLDTLIPDGKRIIWDSRKGFIISNATYKEIGLLTCEATVNGHLYKTNYLTHRQT | 0.1 | – | 1.5 | 0.00478 | 0.17 | – | –
4 | PEG-linked D2 dimer, 0.6 kDa linker (receptor, free cysteine of partially-reduced monomer coupled to a homobifunctional PEG linker of 0.6 kDa (BM(PEG)3)) RPFVEMYSEIPEIIHMTEGRELVIPCRVTSPNITVTLKKFPLDTLIPDGKRIIWDSRKGFIISNATYKEIGLLTCEATVNGHLYKTNYLTHRQT | – | 0.00471 | – | – | – | – | –
5 | Four-arm D2 tetramer linked with 4-arm PEG of 10 kDa (receptor, free cysteine coupled to a 4-arm 10 kDa PEG) RPFVEMYSEIPEIIHMTEGRELVIPCRVTSPNITVTLKKFPLDTLIPDGKRIIWDSRKGFIISNATYKEIGLLTCEATVNGHLYKTNYLTHRQT | 0.14 | – | 0.84 | 0.00374 | 0.35 | – | –
6 | D2-Cys protein (D2 domain of FLT-1 with HPC4 tag and C-terminal cysteine), monomer (receptor, Expressed in HEK293-EBNA cells and purified on an HPC4 antibody column; glycosylated; also called D2 monomer; TCEP-reduced D2 monomer) RPFVEMYSEIPEIIHMTEGRELVIPCRVTSPNITVTLKKFPLDTLIPDGKRIIWDSRKGFIISNATYKEIGLLTCEATVNGHLYKTNYLTHRQT | 11.5 | – | 9.61 | – | 28.9 | 131 | Kd [14]: ~10 nM; percent of the binding affinity of sFLT01 [15]: < 3%; fold higher EC50 than sFLT01 [12]: ~35 fold

The next lines start with results.

Row | Kd [5] [nM] | EC50 [6] [nM] | Kd [7] [nM] | EC50 [8] [nM] | Kd [10] [nM] | EC50 [11] [nM] | Molecule | also measured
7 | 0.61 | 0.00472 | 2.5 | 0.0047 | 0.8 | 3.7 | sFLT01 (D2-9Gly-Fc) (Fc fusion) RPFVEMYSEIPEIIHMTEGRELVIPCRVTSPNITVTLKKFPLDTLIPDGKRIIWDSRKGFIISNATYKEIGLLTCEATVNGHLYKTNYLTHRQTGGGGGGGGG | EC50 [9]: 0.0054 nM
8 | – | 0.00675 | – | – | – | – | PEG-linked D2 dimer, 5 kDa linker (receptor, free cysteine of partially-reduced monomer coupled to a homobifunctional PEG linker of 5 kDa) RPFVEMYSEIPEIIHMTEGRELVIPCRVTSPNITVTLKKFPLDTLIPDGKRIIWDSRKGFIISNATYKEIGLLTCEATVNGHLYKTNYLTHRQT | –
9 | 0.53 | – | 1.69 | – | 11.4 | 8.3 | disulfide-linked D2 dimer (D2 domain with HPC4 tag and C-terminal cysteine) (receptor, disulfide-linked dimer, presumably via the C-terminal cysteine, Two preparations are kept under one id; One formed spontaneously and was SEC-purified from PEGylation reactions or conditioned medium, without copper oxidation ('D2 HPC4 eluate Pk B', 'D2 Pk B'); also called Cu-oxidized dimer; D2 HPC4 eluate Pk B) RPFVEMYSEIPEIIHMTEGRELVIPCRVTSPNITVTLKKFPLDTLIPDGKRIIWDSRKGFIISNATYKEIGLLTCEATVNGHLYKTNYLTHRQT | fold higher EC50 than sFLT01 [12]: 2.2 fold; EC50 [13]: 0.008 to 0.01 nM; fold higher EC50 than sFLT01 [13]: 2 fold
10 | – | – | – | 0.00579 | – | – | PEG-linked D2 dimer, 2 kDa linker (receptor, free cysteine of partially-reduced monomer coupled to a homobifunctional PEG linker of 2 kDa) RPFVEMYSEIPEIIHMTEGRELVIPCRVTSPNITVTLKKFPLDTLIPDGKRIIWDSRKGFIISNATYKEIGLLTCEATVNGHLYKTNYLTHRQT | –
